Laboratory results published in patent US20060210973A1.

Target: HA-TrioGEFD2 (pMTHA-TrioGEFD2) (UniProt O75962)
Assay: cell-based or functional assay

GFP alone gave a percentage of co-transfected PC12 cells with neurites after NGF of 16%.
